± gives the standard deviation of the averaged measurements.
system: ATP; test: switch fluorescence ratio, 500 uM ATP over buffer (Cy3 cluster intensity, sum of 5 cycles each) (fold (ratio)); higher = stronger signal-on switching upon ATP binding; sequences stand for … in TCGTCGGCAGCGTCAGATGTGTATAAGAGACAGTTTTTTTTTTTTTTTTTTTTTTTTT…TC; conditions: aptamer strand: ATP DNA aptamer (quencher-CACCTGGGGGAGTATTGCGGAGGAAGG + anchor), 100 nM annealed; ATP concentration: 500 uM
Summary of the method: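 Five buffer/ATP imaging cycles were run on Cy3-labelled switching-strand clusters on a modified Illumina MiSeq flow-cell, with NaOH stripping and re-annealing between cycles. In each cycle, clusters annealed to 100 nM quencher-labelled ATP aptamer were imaged in selection buffer, then after 15 min with 500 uM ATP at 22 °C. Per cluster, the fluorescence ratio is summed target-cycle over summed buffer-cycle Cy3 intensity, averaged per switch-domain sequence. Only clusters within 100-1000 RFU were kept.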
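Note: ATP exposure 15 min at 22 °C before imaging.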

Sequence	switch fluorescence ratio
ATGGCAACCG	1.02 ± 0.012
ATTGGTAACG	0.9981 ± 0.0037
TGTGAGATTG	1 ± 0.033
ATTGCTCGA	0.993 ± 0.02
CGGGTGTCAC	1.06 ± 0.024
TTTCGCCCCT	1.1 ± 0.062
CGCGTTCGCT	1.025 ± 0.0083
ATCGGGCTGT	1.03 ± 0.013
GCCTCGGGGG	0.953 ± 0.021
CAGGAAATTG	1.02 ± 0.052
CGTTGGTGGT	0.99 ± 0.031
AACTCGTGGG	0.975 ± 0.026
TACTTACTAA	1.19 ± 0.036
GGATGTGGGA	0.981 ± 0.017
AGAGGTGTGG	0.991 ± 0.05
CAGGGGGTCA	0.982 ± 0.015
AGGGGCGTAG	1 ± 0.025
CTAGTAGATC	1.04 ± 0.014
CGCTGAGTTT	0.993 ± 0.021
TAGGGGCAGG	1.07 ± 0.022
TTGAAGTGTG	1.02 ± 0.015
CGAAAAGAAT	1.02 ± 0.029
GCGTTGTGGG	1.05 ± 0.024

Sequence	switch fluorescence ratio
AGGGGGTATC	0.988 ± 0.023
CGATAACTGG	1.05 ± 0.052
GAGTATACGT	1.022 ± 0.0048
CCGAGTGCAG	2.24 ± 0.33
TCAGATTTGG	0.9901 ± 0.006
CATTTTTTTA	0.96084 ± 0.00082
TTTGACTTTA	1.003 ± 0.0029
CGGTTGTGTA	1.03 ± 0.023
TGGGGGTGGG	1.02 ± 0.044
GGACCGGTGA	1.01 ± 0.042
AGGGTATGTT	0.9682 ± 0.004
ATGTGTTCGG	0.98 ± 0.0064
ATGGTCGGGA	0.986 ± 0.026
GAAGCATAAT	1.27 ± 0.12
GTAGCATATT	1.49 ± 0.011
TTTGTGGGAC	1.11 ± 0.066
AGATATGGTG	1.01 ± 0.089
GTGTTAATGA	0.967 ± 0.019
AGGGTATTCA	1.01 ± 0.02
TACTGACGGT	1.4 ± 0.032
CGTGTAGGTT	1.02 ± 0.021
TAGGGCGGGA	0.946 ± 0.052
ATAAGGGTTC	1.03 ± 0.043

Sequence	switch fluorescence ratio
TATCGGTATT	1 ± 0.039
ATCGGATGGC	1.06 ± 0.02
TTTTAAGGG	1.02 ± 0.022
GTTGCGGGGG	0.9937 ± 0.0015
AAAGGGGCGG	1.02 ± 0.022
CAGGTGCGTT	1.58 ± 0.028
TTTTGAGGTC	0.986 ± 0.064
ATGTATTCTT	0.987 ± 0.052
TTAGTAAGGA	1.009 ± 0.0086
AGGTTTTGGG	0.979 ± 0.022
GTAGCTGGTG	1.02 ± 0.018
GAAATTGACC	1.02 ± 0.038
ATCATTAATG	1.01 ± 0.014
ATTTGTAAAG	1 ± 0.034
ATGTTTCGGT	0.9918 ± 0.0073
CAACCGGCCA	1.11 ± 0.027
TTTGAAGGTG	1.45 ± 0.17
CGTTTGGTCT	1 ± 0.051
TCGTTGGTGG	0.984 ± 0.06
AGATGAGGGC	1.04 ± 0.022
TCGTAATGGT	1.05 ± 0.083
TTTGATGGGA	1.025 ± 0.0068
CCTATACGGG	1.03 ± 0.049

Sequence	switch fluorescence ratio
TGATGATGAC	1.01 ± 0.0038
TAATCGTGTG	0.985 ± 0.067
GGGGTGTGGG	1 ± 0.018
TTAGGGAAGG	0.993 ± 0.02
GATTCGTACG	1.01 ± 0.016
AGAGGGTTTT	0.988 ± 0.031
CACCCATTGC	1.584 ± 0.0038
AAAGTATCAG	1.002 ± 0.0081
AGTCCTTTGT	1.02 ± 0.025
AACAGGGTCT	0.991 ± 0.038
ACAGCGGACG	1.02 ± 0.031
GAAGGCTCCG	1.04 ± 0.014
CGTTAATCTT	0.995 ± 0.049
CTGTTCTGTG	0.951 ± 0.033
ATATACCGTC	1.05 ± 0.028
GGATGGGATG	0.989 ± 0.04
TTGTGGGCGA	0.9947 ± 0.0014
TCGGTCCGTT	0.9492 ± 0.0027
TTCTGATGGT	0.99 ± 0.021
TGGAAAGTTT	1 ± 0.052
TATTTTGGTG	0.984 ± 0.033
TGTTATAGCC	1.03 ± 0.04
GCAACTATT	2.42 ± 2

Sequence	switch fluorescence ratio
GCTTATTCAG	0.976 ± 0.013
ATTATGGGTC	1 ± 0.043
TAGTCTAGTG	0.9812 ± 0.0066
ACGGATGTTG	1.01 ± 0.059
GATTCCTCAT	1.015 ± 0.0095
TTTGCAAAGG	1.007 ± 0.0022
GCAGATGCCT	1 ± 0.023
TTGGGTGCAG	1.016 ± 0.0075
AGAGGGCATT	0.967 ± 0.045
GCCTGTATTG	0.982 ± 0.027
GTTCAGTTTG	1.03 ± 0.031
CTATTTTGAT	0.979 ± 0.024
TTGTGAGTTT	1 ± 0.055
CGTGTATATA	1.018 ± 0.0041
GGTTCTTGGT	0.949 ± 0.028
TTACTCGGGA	1.04 ± 0.012
GCAATATGCA	1.03 ± 0.05
AGGGTGGGGG	1.03 ± 0.036
AAATGCTCGG	0.993 ± 0.03
ATAGACTGAG	0.983 ± 0.012
AGTTGATTGT	0.9895 ± 0.0076
TTTCGCATTT	1.14 ± 0.013
GGTGGGAGCT	1.01 ± 0.075

Sequence	switch fluorescence ratio
TTCCGGGAAA	0.968 ± 0.031
GCTGATATAA	1.01 ± 0.019
CAATTCGCGA	1.2 ± 0.034
CTAGCCTCTT	0.995 ± 0.027
CGCAATGGGG	2.98 ± 0.53
GTTCTAGTGT	0.972 ± 0.04
GACCGGGCTT	0.9753 ± 0.0038
TAGACGGATT	1.04 ± 0.066
TGGCGAGGCG	1.046 ± 0.0077
CTTTCGTGGA	1 ± 0.022
TCGTTGATGC	1.08 ± 0.08
GTGTGTGGGA	1 ± 0.026
ACTTAATTGT	1.07 ± 0.084
TTAATTGTTT	0.989 ± 0.018
AGGCAAACCC	1.0669 ± 0.00051
TTAGCTGTTT	0.995 ± 0.035
ACAGGCCAGG	1.23 ± 0.082
GGGGTCAGGA	1.03 ± 0.029
ATATGGATTA	1.012 ± 0.0068
TAAGTATGCC	0.963 ± 0.06
TTGTGGAGTT	1.01 ± 0.017
GGATTCGGTG	0.976 ± 0.02
TGTTGAGTAT	0.9738 ± 0.0072

Sequence	switch fluorescence ratio
TGATGGGGCT	0.975 ± 0.038
GTTGTTACAA	1.004 ± 0.0092
GTGATGCAGG	0.98 ± 0.026
TACGTGGCTG	1.05 ± 0.073
GGTCCAATTA	0.977 ± 0.015
CTAAGGGGAT	1.09 ± 0.15
GGTTTGTGGT	1.03 ± 0.062
CTGCTCACAC	1.22 ± 0.046
ACATCAGATG	1.005 ± 0.0023
CGGGGGGAGA	1.03 ± 0.061
GGGGTAGATA	1.01 ± 0.012
GAAAAAATCC	1.29 ± 0.34
CTTTTTTGGT	1.03 ± 0.015
ATTGGGTATT	0.9749 ± 0.007
GTTTTGGGGG	1.02 ± 0.025
TCGAGGGAGG	0.994 ± 0.075
GGGCATAAAG	1.02 ± 0.025
GAGCTGGGTC	1.02 ± 0.071
TAGGGGATAT	0.964 ± 0.025

— the supplement of paper PMC10126150
